The results in this text go back to article PMC5261807 (2017).

Non-standard residues stand in square brackets, D forms with d. No end group written: not given here. Arg(Me2a) = CN(C)C(=N)NCCC[C@H](N)C(=O)O; Lys(Me3) = C[N+](C)(C)CCCC[C@H](N)C(=O)O; Arg(Me2s) = CN=C(NC)NCCC[C@H](N)C(=O)O; pT = C[C@@H](OP(=O)(O)O)[C@H](N)C(=O)O; Lys(Me2) = CN(C)CCCC[C@H](N)C(=O)O; pS = N[C@@H](COP(=O)(O)O)C(=O)O; Lys(Me) = CNCCCC[C@H](N)C(=O)O

T1: Bdf1 bromodomain 1 (GST-tagged, WT) (Saccharomyces cerevisiae (strain ATCC …, UniProt P35817))
T1 chain: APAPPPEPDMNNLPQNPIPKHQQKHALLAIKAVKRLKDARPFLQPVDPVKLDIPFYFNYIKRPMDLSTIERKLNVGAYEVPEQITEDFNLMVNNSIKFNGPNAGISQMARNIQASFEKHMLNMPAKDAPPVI

T2: Bdf1 bromodomain 2 (GST-tagged, WT) (Saccharomyces cerevisiae (strain ATCC …, UniProt P35817))
T2 chain: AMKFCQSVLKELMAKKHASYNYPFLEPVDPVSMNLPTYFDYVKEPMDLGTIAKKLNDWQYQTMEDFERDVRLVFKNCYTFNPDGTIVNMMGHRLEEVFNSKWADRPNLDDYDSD

B1: H3 1-19 (peptide)
chain: ARTKQTARKSTGGKAPRKQ
modifications: A Rme2s T Kme1 Q T A Rme2a Kme2 S T G G K A P R K Q
B2: H3 1-19 (peptide)
chain: A[Arg(Me2s)][pT][Lys(Me)]QTARKSTGGKAPRKQ
B3: H4 1-19 (peptide)
chain: SGRGKGGKGLGKGGAKRHR
modifications: pS G Rme2a G K G G K G L G K G G A K R H R
B4: H3 1-19 (peptide)
chain: ARTKQTARKSTGGKAPRKQ
modifications: A R T Kme3 Q T A Rme2a Kac S T G G K A P R K Q
B5: H4 1-19 (peptide)
chain: SGRGKGGKGLGKGGAKRHR
modifications: pS G Rme2s G Kac G G K G L G K G G A K R H R
B6: H3 1-19 (peptide)
chain: ARTKQTARKSTGGKAPRKQ
modifications: A R T K Q T A Rme2s Kac pS T G G K A P R K Q
B7: H4 1-19 (peptide)
chain: SGRGKGGKGLGKGGAKRHR
modifications: pS G Rme2a G Kac G G K G L G K G G A K R H R
B8: H3 1-19 (peptide)
chain: A[Arg(Me2s)]TK(Ac)QTA[Arg(Me2a)][Lys(Me3)]STGGKAPRKQ
B9: H3 1-19 (peptide)
chain: ARTKQTARKSTGGKAPRKQ
modifications: A Rme2a T Kme3 Q T A Rme2s Kac S T G G K A P R K Q
B10: H3 16-35 (peptide)
chain: PRKQLATKAA[Arg(Me2s)][Lys(Me)]SAPATGG
B11: H3 1-19 (peptide)
chain: ARTKQTA[Arg(Me2s)]K(Ac)S[pT]GGKAPRKQ
B12: H4 1-19 (peptide)
chain: SGRGKGGKGLGKGGAKRHR
modifications: S G Rme2s G Kac G G K G L G K G G A K R H R
B13: H3 1-19 (peptide)
chain: A[Arg(Me2a)]TK(Ac)QTA[Arg(Me2a)][Lys(Me)]STGGKAPRKQ
B14: H3 16-35 (peptide)
chain: PRKQLATKAA[Arg(Me2s)]K(Ac)[pS]APATGG
B15: H2a 1-19 (peptide)
chain: [pS]GRGKQGGK(Ac)ARAKAKSRSS
B16: H3 1-19 (peptide)
chain: A[Arg(Me2s)]TKQTARKSTGGKAPRKQ
B17: H2a 1-19 (peptide)
chain: SGRGK(Ac)QGGKARAKAKSRSS
B18: H3 1-19 (peptide)
chain: ARTKQTARKSTGGKAPRKQ
modifications: A Rme2s T Kme3 Q T A Rme2a Kme3 S T G G K A P R K Q
B19: H3 16-35 (peptide)
chain: PRKQLATKAAR[Lys(Me2)][pS]APATGG

The first test concerns the target T1, Bdf1 bromodomain 1 (GST-tagged, WT). Kind of test: histone peptide array probed with recombinant GST-bromodomain, signal normalised to myc peptide control.
With B1, the binding score is 0.00502.
Consider B2, for which the binding score was found to be 0.00323.
Same read-out and setting: next, B3: 0.
Same read-out and setting: the figure for B4 is 0.0142; for B5 it is 0.00968.
For B6, the binding score was 0.00484.
Same read-out and setting: next, B7: 0.00753; B8: 0.0145.
Regarding B9, the binding score was determined as 0.0181.
On the same count and under the same terms, the figure for B10 is 0.
On the same count and under the same terms, the figure for B11 is 0.0118; for B12 it is 0; for B13 it is 0.00897.
Still for that read-out and setting: next, B14: 0.0061.
For B15, the binding score is 0.
On the same count and under the same terms, the figure for B16 is 0.0111; for B17 it is 0.
As for B18, the binding score was determined as 0.00681.
Still for that read-out and setting: the figure for B19 is 0.

A further test has as its target T2, Bdf1 bromodomain 2 (GST-tagged, WT). The test is described as above.
As to B1, the binding score came out at 0.
For the molecule B2, the binding score amounted to 0.00344.
Same read-out and setting: the figure for B3 is 0; for B4 it is 0.0127.
Same read-out and setting: the figure for B5 is 0.107.
On the same count and under the same terms, the figure for B6 is 0.00403.
Consider B7, for which the binding score worked out at 0.0674.
As for B8, the binding score is 0.00836.
On the same count and under the same terms, the figure for B9 is 0.0261.
B10: the binding score came to 0.
The same measure, in the same setting: next, B11: 0.00679.
On the same count and under the same terms, the figure for B12 is 0.0652; for B13 it is 0; for B14 it is 0.
Same read-out and setting: the figure for B15 is 0.00817; for B16 it is 0; for B17 it is 0.0459.
As to B18, the binding score was found to be 0.00108.
The same measure, in the same setting: the figure for B19 is 0.
